Blank lines part the entries; values can stand above or below the binder they belong to.
Tests used:
[1] = target: EGFP-miPEP8 SLiMmt (mutated SLiM MOD_Plk1/MOD_Plk4) (Drosophila melanogaster); assay: affinity purification with mass spectrometry; GFP-Trap agarose beads O/N at 4 °C on lysates of S2 cells transfected with EGFP, EGFP-miPEP8 or EGFP-miPEP8 SLiMmt; lysis buffer 50 mM Tris pH 7.5, 50 mM NaCl, 5% glycerol, 0.1% Igepal; four washes; LC-MS/MS, MaxQuant
[2] = target: miPEP8 fused on its C-terminus to the N-terminal fragment of luciferase (N-Luc) (Drosophila melanogaster); assay: split reporter (BiFC, NanoBiT); split firefly luciferase in S2 cells: miPEP8 or Ey fused to N-Luc, candidates or Antp fused to C-Luc; 48 h after transfection, D-luciferin, luminescence normalised; negative control: the two fragments not fused to any protein

fold decrease of the interaction against EGFP-miPEP8 (MS intensity) [1]: 2.8 fold
B1: ref(2)P (refractory to sigma P), the orthologue of the human p62/Sequestosome 1 protein (natural protein)
chain: MPEKLLKITYQGAGPQKKINAYLRMPSQNYTILRREIELYLFQERQLPKCDVRTFWIDADKDEIEIVNQNDYEIFLAKCESNMHVQVAPLAPVEEPKATKQEGSSANAEAPSVDDPSNFTIHDAVECDGCGLAPLIGFRYKCVQCSNYDLCQKCELAHKHPEHLMLRMPTNNGPGMVDAWFTGPGLGRRSGRRSRGHCPFQETNQADPAGEPARDSRRERRQARRHAGVLTQFVEMMTNLPLNTTTATAPAEPQKPKAAEQTESPPQAEPTVTAEKAAESEAKPTEPKKVNTDQSVPRTEDPVTTPRSTQPTTPVINLDNISQIVPPEYMSAGIEILNNFSEMFSKIIDTTEGGDSGIFAPSTTPSAENKKPEEQGQSSGQSGASSANQSAVPSAAPSANQSNVPSANQSATPSISGSIPDAQLETEPLNPKPSETTTETEQERRRSDSLDPEWQLIDNAYSANNSNLINLDTTNPTAAPQEPVRDFGQLGELLRQHMNEEARVEQASANTQTAQVDTVSTSTSTTSVTTNSVGTSPAAPDDKRTVPVYHTDESINKSIHAMMAMGFSNEGAWLTQLLESVQGNISAALDVMNVSQNRN

luminescence signal, times the negative control (times the negative control) [2]: 4.6
B2: PI3K92 E fused with the C-terminal fragment of the luciferase (natural protein)
chain: MNMMDNRALAYVAHQPKYETPPEEAEPPCMRFSVNLWKNEMLNWVDLICLLPNGFLLELRVNPANTIQVIKVEMVNQAKQMPLGYVIKEACEYQVYGISTFNIEPYTDETKRLSEVQPYFGILSLGERTDTTSFSSDYELTKMVNGMIGTTFDHNRTHGSPEIDDFRLYMTQTCDNIELERSAYTWQQRLLYEHPLRLANSTKMPELIRERHPTRTFLIVVKNENDQSTFTLSVNEQDTPFSLTESTLQKMNRSQMKMNDRTSDYILKVSGRDEYLLGDYPLIQFLYIQEMLSDSAVPNVVLQSVYRLESYINHHNEQAMVTKRPLPKKRTVHLHKSISSLWDMGNYFQLTLHSISNVNFDKTRALKVGVHVCLYHGDKKLCAQRSTDSPNGNFDTFLFNDLVMDFDIQMRNLPRMTRLCIVIFEVTKMSRSKKSSNNKDIALKDVPYNKNPLAWVNTTIFDHKDILRTGRHTLYTWTYADDIQSVEVFHPLGTIEPNPRKEECALVDLTFLSSGTGTVRYPSEEVVLQYAADREQVNRLQRQLAGPEKPIKELKELMANYTGLDKIYEMVDQDRNAIWERRNDILRELPEELSILLHCVYWKERDDVADMWYLLKQWPLISIERSLELLDYAYPDPAVRRFAIRCLHFLKDEDLLLYLLQLVQAIKHESYLESDLVVFLLERALRNQRIGHYFFWHLRSEMQTPSMQTRFGLLLEVYLKGCKHHVAPLRKQLHVLEKLKQGSLIAKKGSKEKVKTMLQDFLRDQRNSAVFQNIQNPLNPSFRCSGVTPDRCKVMDSKMRPLWVVFENADVNASDVHIIFKNGDDLRQDMLTLQMLRVMDQLWKRDGMDFRMNIYNCISMEKSLGMIEVVRHAETIANIQKEKGMFSATSPFKKGSLLSWLKEHNKPADKLNKAINEFTLSCAGYCVATYVLGVADRHSDNIMVKRNGQLFHIDFGHILGHFKEKLGVRRERVPFVLTHDFVYVINKGFNDRESKEFCHFQELCERAFLVLRKHGCLILSLFSMMISTGLPELSSEKDLDYLRETLVLDYTEEKAREHFRAKFSEALANSWKTSLNWASHNFSKNNKQ
